From patent US20240409663A1 (CONCEPT TO MEDICINE BIOTECH, published 2024) come the findings set out here.

The target in test [1] is T1, human GPC3 on cells (human, UniProt P51654 25-554).
T1 construct: whole, on cells; over-expressed on CHOK1 cells or endogenous on HEPG2, Hep3B and Huh-7 hepatocellular carcinoma cells; the cell line is named under assay; also called GPC3-CHOK1 cells; human GPC3 over-expressed CHOK1 cells
Kind of test: FACS, HEPG2 cells. The procedure: (§1) To evaluate the antigen binding property, the humanized antibodies were analyzed for their binding to human GPC3 over-expressed CHOK1 cells, HEPG2 cells, Hep3B cells and Huh-7 cells by FACS. Briefly, GPC3-CHOK1 cells, HEPG2 cells, Hep3B cells and Huh-7 cells were firstly incubated with Fc blocking reagent at 4° C. for 15 mins. Cells were washed by FACS buffer and divided to each well with 4-fold serially diluted humanized antibodies starting at 10 μg/mL at 4° C. for 60 mins. Cells were washed by FACS buffer and fixed with 2% PFA at RT for 15 mins. […] The 16 humanized antibodies were separated into two plates.
In general terms: A flow cytometer gives signals particle by particle.

Test [2] deals with T1, human GPC3 on cells. Kind of test: FACS, Hep3B cells. How it is done: as §1
In test [3] the target is T1, human GPC3 on cells. Kind of test: FACS, Huh-7 cells. How it is done: as §1
Test [4] concerns the target T1, human GPC3 on cells. Briefly: FACS, HEPG2 cells. The source says:
(§2) FACS was used to evaluate the binding activity of 52H5D3B8-6 #-VH1+VL1 and 52H5D3B8-6 #-VH2+VL3 with comparison to GC33 (Chugai Pharmaceutical) and Y035 (Carsgen Therapeutics, U.S. Patent Application US20190046659) on human GPC3 over-expressed CHOK1 cells and HEPG2 cells.
The source holds these as a separate data set.

Test [5] has as its target T1, human GPC3 on cells. Briefly: FACS, GPC3-CHOK1 cells. The procedure:
as §1

In test [6] the target is T1, human GPC3 on cells. Briefly: FACS, GPC3-CHOK1 cells.
Text: as §2
The source holds these as a separate data set.

The target of test [7] is T1, human GPC3 on cells. Kind of test: cell-based or functional assay.
Test [8] deals with T1, human GPC3 on cells. Briefly: cell-based or functional assay. This is another data set of the same source.
Test [9] deals with T2, human GPC3-his tag protein (human, UniProt P51654 25-559, limits assumed).
T2 construct: recombinant soluble antigen used as analyte in all Biacore runs; also called recombinant GPC3 protein; rhGPC3-His; not shown: His tag
Briefly: SPR Biacore 8K, mAb captured, affinity ranking. How it is done: To evaluate antigen binding activity, the chimeric antibody's affinity was measured by Biacore 8K. A serial dilution of human GPC3-his tag protein was injected over captured chimeric antibody 52H5D3B8-6 #-VH+VL for 3 mins at a flow rate of 30 μl/min. The antigen was allowed to dissociate for 720 s. Among the multi detection doses, two concentrations with most close affinity to the chimeric antibody's affinity were chosen for the 16 humanized antibodies' affinity detection.
On the technique in general: SPR reads the build-up and loss of mass on a sensor chip optically.

The target of test [10] is T2, human GPC3-his tag protein. Kind of test: SPR Biacore, mAb captured on CM5, GPC3-his dilution series (full kinetics). How it is done: The binding of the humanized antibodies to recombinant GPC3 protein (human GPC3-his tag) was tested by Biacore using a capture method. 52H5D3B8-6 #-V+VL, 52H5D3B8-6 #-VH1+VL1, 52H5D3B8-6 #-VH1+VL3, 52H5D3B8-6 #-V1+VL4, 52H5D3B8-6 #-VH2+VL4, 52H5D3B8-6 #-VH3+VL1, 52H5D3B8-6 #-VH3+VL3 mAbs were captured using CM5 sensor chip. A serial dilution of human GPC3-his tag protein was injected over captured antibody for 2 mins at a flow rate of […]. The antigen was allowed to dissociate for 360 s. All the experiments were carried out on a Biacore T200.

In test [11] the target is T1, human GPC3 on cells. Briefly: FACS, Hep3B cells. The procedure: (§3) Cell-based binding: FACS was used to evaluate the binding activity of 52H5D3B8, 52H5D3B8-6 # chimeric mAbs and GC33 antibody on human GPC3 over-expressed CHOK1 cells, Hep3B cells and Huh-7 cells.
(§4) Briefly, GPC3-CHOK1 cells, Hep3B cells or Huh-7 cells were firstly incubated with Fc blocking reagent at 4° C. for 15 mins. Cells were washed by FACS buffer and divided to each well with 3-fold serially diluted 52H5D3B8, 52H5D3B8-6 # chimeric mAbs or GC33 antibody starting at 30 μg/mL at 4° C. for 60 mins. Cells were washed by FACS buffer and fixed with 2% PFA at RT for 15 mins. […] Samples were washed twice with FACS buffer.
This is another data set of the same source.

Test [12] addresses T1, human GPC3 on cells. Briefly: FACS, Huh-7 cells. How it is done:
as §3, §4
This is another data set of the same source.

The target in test [13] is T1, human GPC3 on cells. Kind of test: FACS, HEPG2 cells. The procedure: as §1
The source holds these as a separate data set.

Test [14] addresses T1, human GPC3 on cells. Kind of test: FACS, Hep3B cells. How it is done:
as §1
This is another data set of the same source.

For test [15], the target named is T1, human GPC3 on cells. Briefly: FACS, Huh-7 cells. How it is done:
as §1
The source holds these as a separate data set.

Test [16] deals with T1, human GPC3 on cells. Briefly: FACS, GPC3-CHOK1 cells. The procedure:
Briefly, GPC3-CHOK1 cells were firstly incubated with Fc blocking reagent at 4° C. for 15 mins. Cells were washed by FACS buffer and divided to each well with 3-fold serially diluted 52H5D3B8, 52H5D3B8-1 #, 52H5D3B8-2 #, 52H5D3B8-3 #, 52H5D3B8-4 #, 52H5D3B8-5 #, 52H5D3B8-6 #, 52H5D3B8-7 #, 52H5D3B8-8 #, 52H5D3B8-9 #, 52H5D3B8-10 #, 52H5D3B8-11 #, 52H5D3B8-12 #, 52H5D3B8-13 #, 52H5D3B8-14 # and 52H5D3B8-15# chimeric mAbs starting at 30 μg/mL at 4° C. for 60 mins. Cells were washed by FACS buffer and fixed with 2% PFA at RT for 15 mins. […] Samples were washed twice with FACS buffer.
The source holds these as a separate data set.

In test [17] the target is T1, human GPC3 on cells. Briefly: FACS, GPC3-CHOK1 cells. The procedure: as §3, §4
This is another data set of the same source.

Test [18] addresses T1, human GPC3 on cells. Briefly: FACS, GPC3-CHOK1 cells. How it is done:
as §1
The source holds these as a separate data set.

Test [19] concerns the target T2, human GPC3-his tag protein. Briefly: SPR Biacore 8K, mAb captured, one or two doses GPC3-his. How it is done:
The binding of the optimized antibodies of 52H5D3B8 mAb to human GPC3-his was tested with Biacore using a capture method. A single dose or two doses of human GPC3-his tag protein was injected over captured antibody. All the experiments were carried out on a Biacore 8K. Data analysis was carried out using Biacore 8K evaluation software.

For test [20], the target named is T1, human GPC3 on cells. Kind of test: FACS, GPC3-CHOK1 cells. How it is done: To evaluate the antigen binding property, the affinity maturated antibodies were analyzed for their binding to human GPC3 over-expressed CHOK1 cells by FACS as previously described.
The source holds these as a separate data set.

Residue numbers refer to the chain shown, from its start.

B1: 52H5D3B8-6#-VH1+VL1 (antibody, V domains shown)
VH: QVQLVQSGAEVKKPGASVKVSCKASGYTFTDYEMHWVRQAPGQGLEWMGAIHPGSGGTAYNQKFKGRVTMTRDTSTSTVYMELSSLRSEDTAVYYCARYYSYAYWGQGTLVTVSS
VL: DIVMTQTPLSLSVTPGQPASISCRSSQSLVHSNGNTYLQWYLQKPGQSPQLLIYKVSNRFSGVPDRFSGSGSGTDFTLKISRVEAEDVGVYYCFQSIHVPYTFGGGTKLEIK
notes: humanized
In general, EC50 refers to the concentration that produces a half-maximal response. A lower EC50 goes with higher potency in that assay. A word on the Kd: it is a measure of binding affinity in units of concentration. Lower therefore signals higher affinity. The koff is a measure of how fast the partners let go of each other. For orientation: kon means the second-order rate constant of association. As to B1, the EC50 with human GPC3 on cells [1] turned out to be 0.0411 µg/mL; in the test with human GPC3 on cells [2] it was 0.0626 µg/mL; with human GPC3 on cells [3] it was 0.0362 µg/mL; in the test with human GPC3 on cells [4], 342 pM; with human GPC3 on cells [5], 0.038 µg/mL; with human GPC3 on cells [6], 332 pM. In the test with human GPC3 on cells [7], the “EC50 of ADCC signaling (Jurkat-hCD16a-NFAT luciferase reporter), HEPG2 cells” value is 176 pM. Further, in the test with human GPC3 on cells [7], the “EC50 of ADCC signaling (Jurkat-hCD16a-NFAT luciferase reporter), Huh-7 cells” value came out at 322 pM. Further, the “EC50 of ADCC cytotoxicity (primary NK cells, LDH), HEPG2 cells” value in the test with human GPC3 on cells [8] amounted to 84.5 pM. The “EC50 of ADCC cytotoxicity (primary NK cells, LDH), Huh-7 cells” value in the test with human GPC3 on cells [8] was determined as 108 pM. Also, the figures for the Kd in [9] and in test [10] were 1970 pM and 2240 pM, respectively. Moreover, the koff stood at 0.00112 s⁻¹ in test [9] and 0.00111 s⁻¹ in [10]. Also, the kon in [9] stood at 567000 M⁻¹ s⁻¹; in test [10], 497000 M⁻¹ s⁻¹.

B2: 52H5D3B8-6# chimeric mAb (antibody, V domains shown)
VH: QVQLQQSGAELVRPGASVKLSCKALGYTFTDYEMHWVKQTPVHGLEWIGAIHPGSGGTAYNQKFKGKATLTADKFSSTGYMELSSLTSEDSAVYYCTRYYSYAYWGQGTLVTVSA
VL: B1 VL with I2V, S12P, T14S, P15L, Q17D, P18Q, Q50K, T77I, V88L, Y92F
notes: CDR3 mutant of the 52H5D3B8 chimeric mAb (human IgG1); also called 52H5D3B8-6#-VH+VL
In the case of B2, the EC50 in the test with human GPC3 on cells [11] stood at 0.0982 µg/mL; with human GPC3 on cells [12], 0.0501 µg/mL; in the test with human GPC3 on cells [1], 0.0452 µg/mL; with human GPC3 on cells [2] it was 0.0643 µg/mL; with human GPC3 on cells [3] it was 0.0347 µg/mL; with human GPC3 on cells [13], 0.0469 µg/mL. In addition, the EC50 came to 0.0664 µg/mL in the test with human GPC3 on cells [14]; 0.0378 µg/mL with human GPC3 on cells [15]; 0.0601 µg/mL with human GPC3 on cells [16]; 0.0474 µg/mL in the test with human GPC3 on cells [17]; 0.035 µg/mL in the test with human GPC3 on cells [5]; 0.0389 µg/mL with human GPC3 on cells [18]. The equilibrium dissociation constant (Kd) was 425 pM in test [9], 368 pM in test [19] and 446 pM in test [10]. The off-rate constant (koff) is 0.000307 s⁻¹ in [9], 0.000289 s⁻¹ in test [19] and 0.000265 s⁻¹ in test [10]. Also, the association rate constant (kon) in test [9] is 721000 M⁻¹ s⁻¹; in test [19], 785000 M⁻¹ s⁻¹; in test [10], 595000 M⁻¹ s⁻¹.

B3: 52H5D3B8-6#-VH2+VL3 (antibody, V domains shown)
VH: B1 VH with M48I, R72A, A97T
VL: B1 VL with Q50K
notes: humanized
As to B3, the EC50 is 0.0438 µg/mL with human GPC3 on cells [1]; 0.0705 µg/mL with human GPC3 on cells [2]; 0.0384 µg/mL with human GPC3 on cells [3]; 354 pM with human GPC3 on cells [4]; 0.0411 µg/mL in the test with human GPC3 on cells [5]; 344 pM in the test with human GPC3 on cells [6]. For the same molecule, a half-maximal effect with human GPC3 on cells [20] (EC50) was put at 412 pM. In addition, in the test with human GPC3 on cells [7], the “EC50 of ADCC signaling (Jurkat-hCD16a-NFAT luciferase reporter), HEPG2 cells” value was found to be 174 pM. In the test with human GPC3 on cells [7], the “EC50 of ADCC signaling (Jurkat-hCD16a-NFAT luciferase reporter), Huh-7 cells” value turned out to be 265 pM. In addition, the “EC50 of ADCC cytotoxicity (primary NK cells, LDH), HEPG2 cells” value with human GPC3 on cells [8] came to 104 pM. The “EC50 of ADCC cytotoxicity (primary NK cells, LDH), Huh-7 cells” value in the test with human GPC3 on cells [8] came out at 106 pM. In test [9], this molecule displayed a Kd of 962 pM. This molecule also came in with a dissociation rate constant (koff) in [9] of 0.000642 s⁻¹. The molecule also showed an on-rate constant (kon) in test [9] of 668000 M⁻¹ s⁻¹.
